Experimental data reported in article PMC5161705.

Tests used:
[1] = molecular target: MBP^V8G/Y283D (E. coli) [MBP: P0AEX9]; experiment: ITC
[2] = molecular target: biotin-labeled MBP (E. coli) [MBP: P0AEX9]; experiment: BLI

Chain of SecB (P0AG86 whole entry): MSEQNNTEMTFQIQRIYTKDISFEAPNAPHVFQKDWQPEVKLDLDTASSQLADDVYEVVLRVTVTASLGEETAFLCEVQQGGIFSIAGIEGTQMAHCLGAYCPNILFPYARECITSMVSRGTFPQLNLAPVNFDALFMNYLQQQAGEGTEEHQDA
Chain of Trigger Factor (TF) (P0A850 whole entry): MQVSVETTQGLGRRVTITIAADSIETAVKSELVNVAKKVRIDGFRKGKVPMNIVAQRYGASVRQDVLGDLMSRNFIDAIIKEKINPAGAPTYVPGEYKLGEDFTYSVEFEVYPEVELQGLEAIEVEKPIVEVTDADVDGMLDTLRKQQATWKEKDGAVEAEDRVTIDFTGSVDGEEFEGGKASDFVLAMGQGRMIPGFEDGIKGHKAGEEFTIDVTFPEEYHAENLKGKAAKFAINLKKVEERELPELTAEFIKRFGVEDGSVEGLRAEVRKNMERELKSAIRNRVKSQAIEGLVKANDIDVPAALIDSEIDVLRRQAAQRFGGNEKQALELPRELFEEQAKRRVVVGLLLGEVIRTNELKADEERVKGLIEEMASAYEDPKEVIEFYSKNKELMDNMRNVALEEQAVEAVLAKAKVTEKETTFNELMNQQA

## SecB (from UniProt P0AG86 1-155) (natural protein)
[1]
  Kd: 50 mM
[2]
  koff: 0.01 s⁻¹

## Trigger Factor (TF) (from UniProt P0A850 1-432) (natural protein)
[2]
  koff: 0.05 s⁻¹
